Reference: PMC11090158

Target: GST-tag DNA polymerase (pol) β, wild-type (human) (UniProt P06746)
Assay: SPR

Substance: X-ray cross-complementing protein 1 (XRCC1) V86R, 6x-his tag (from UniProt P18887 1-633) (natural protein)
- Kd: 2700 nM
